Measured values: the supplement of paper PMC11246515
± gives the standard deviation of the averaged measurements.

Assay: total protein half-life in vivo (active degradation + dilution); higher = more stable protein
[1] = E. coli NCM3722 delta-clpP delta-lon delta-hslV, growth: N-lim chemostat, doubling time 6 h
[2] = E. coli NCM3722 delta-clpP, growth: N-lim chemostat, doubling time 6 h
[3] = E. coli NCM3722 delta-hslV, growth: N-lim chemostat, doubling time 6 h
[4] = E. coli NCM3722 delta-lon, growth: N-lim chemostat, doubling time 6 h
[5] = E. coli NCM3722 delta-smpB, growth: N-lim chemostat, doubling time 6 h
[6] = wild type E. coli NCM3722, growth: C-lim chemostat, doubling time 3 h
[7] = wild type E. coli NCM3722, growth: C-lim chemostat, doubling time 6 h
[8] = wild type E. coli NCM3722, growth: C-lim chemostat, doubling time 12 h
[9] = wild type E. coli NCM3722, growth: N-lim chemostat, doubling time 6 h
[10] = wild type E. coli NCM3722, growth: N-lim chemostat, doubling time 12 h
[11] = wild type E. coli NCM3722, growth: P-lim chemostat, doubling time 6 h
[12] = wild type E. coli NCM3722, growth: P-lim chemostat, doubling time 12 h

Sequence | total protein half-life in vivo [1] [h] | total protein half-life in vivo [2] [h] | total protein half-life in vivo [3] [h] | total protein half-life in vivo [4] [h] | total protein half-life in vivo [5] [h] | total protein half-life in vivo [6] [h] | total protein half-life in vivo [7] [h] | total protein half-life in vivo [8] [h] | total protein half-life in vivo [9] [h] | total protein half-life in vivo [10] [h] | total protein half-life in vivo [11] [h] | total protein half-life in vivo [12] [h]
MKRHLNTCYRLVWNHMTGAFVVASELARARGKRGGVAVALSLAAVTSLPVLAADIVVHPGETVNGGTLANHDNQIVFGTTNGMTISTGLEYGPDNEANTGGQWVQDGGTANKTTVTSGGLQRVNPGGSVSDTVISAGGGQSLQGRAVNTTLNGGEQWMHEGAIATGTVINDKGWQVVKPGTVATDTVVNTGAEGGPDAENGDTGQFVRGDAVRTTINKNGRQIVRAEGTANTTVVYAGGDQTVHGHALDTTLNGGYQYVHNGGTASDTVVNSDGWQIVKNGGVAGNTTVNQKGRLQVDAGGTATNVTLKQGGALVTSTAATVTGINRLGAFSVVEGKADNVVLENGGRLDVLTGHTATNTRVDDGGTLDVRNGGTATTVSMGNGGVLLADSGAAVSGTRSDGKAFSIGGGQADALMLEKGSSFTLNAGDTATDTTVNGGLFTARGGTLAGTTTLNNGAILTLSGKTVNNDTLTIREGDALLQGGSLTGNGSVEKSGSGTLTVSNTTLTQKAVNLNEGTLTLNDSTVTTDVIAQRGTALKLTGSTVLNGAIDPTNVTLASGATWNIPDNATVQSVVDDLSHAGQIHFTSTRTGKFVPATLKVKNLNGQNGTISLRVRPDMAQNNADRLVIDGGRATGKTILNLVNAGNSASGLATSGKGIQVVEAINGATTEEGAFVQGNRLQAGAFNYSLNRDSDESWYLRSENAYRAEVPLYASMLTQAMDYDRIVAGSRSHQTGVNGENNSVRLSIQGGHLGHDNNGGIARGATPESSGSYGFVRLEGDLMRTEVAGMSVTAGVYGAAGHSSVDVKDDDGSRAGTVRDDAGSLGGYLNLVHTSSGLWADIVAQGTRHSMKASSDNNDFRARGWGWLGSLETGLPFSITDNLMLEPQLQYTWQGLSLDDGKDNAGYVKFGHGSAQHVRAGFRLGSHNDMTFGEGTSSRAPLRDSAKHSVSELPVNWWVQPSVIRTFSSRGDMRVGTSTAGSGMTFSPSQNGTSLDLQAGLEARVRENITLGVQAGYAHSVSGSSAEGYNGQATLNVTF | 5.867 ± 0.045 | 6.13 ± 0.57 | 4.9 ± 0.93 | 5.37 ± 0.085 | 5.53 ± 0.46 | 3.05 ± 0.062 | 4.43 ± 1.3 | 4.46 ± 0.86 | 5.92 ± 0.28 | 9.16 ± 2 | 5.77 ± 0.94 | 11.9 ± 0.57
MNSLFASTARGLEELLKTELENLGAVECQVVQGGVHFKGDTRLVYQSLMWSRLASRIMLPLGECKVYSDLDLYLGVQAINWTEMFNPGATFAVHFSGLNDTIRNSQYGAMKVKDAIVDAFTRKNLPRPNVDRDAPDIRVNVWLHKETASIALDLSGDGLHLRGYRDRAGIAPIKETLAAAIVMRSGWQPGTPLLDPMCGSGTLLIEAAMLATDRAPGLHRGRWGFSGWAQHDEAIWQEVKAEAQTRARKGLAEYSSHFYGSDSDARVIQRARTNARLAGIGELITFEVKDVAQLTNPLPKGPYGTVLSNPPYGERLDSEPALIALHSLLGRIMKNQFGGWNLSLFSASPDLLSCLQLRADKQYKAKNGPLDCVQKNYHVAESTPDSKPAMVAEDYTNRLRKNLKKFEKWARQEGIECYRLYDADLPEYNVAVDRYADWVVVQEYAPPKTIDAHKARQRLFDIIAATISVLGIAPNKLVLKTRERQKGKNQYQKLGEKGEFLEVTEYNAHLWVNLTDYLDTGLFLDHRIARRMLGQMSKGKDFLNLFSYTGSATVHAGLGGARSTTTVDMSRTYLEWAERNLRLNGLTGRAHRLIQADCLAWLREANEQFDLIFIDPPTFSNSKRMEDAFDVQRDHLALMKDLKRLLRAGGTIMFSNNKRGFRMDLDGLAKLGLKAQEITQKTLSQDFARNRQIHNCWLITAA | 5.837 ± 0.045 | 6.06 ± 0.79 | 5.92 ± 0.34 | 6.466 ± 0.03 | 5.37 ± 0.12 | 3.13 ± 0.17 | 6.101 ± 0.011 | 10.4 ± 0.11 | 5.428 ± 0.015 | 10.47 ± 0.039 | 6.129 ± 0.044 | 13.1 ± 1.5
MPIHDKSPRPQEFAAVDLGSNSFHMVIARVVDGAMQIIGRLKQRVHLADGLGPDNMLSEEAMTRGLNCLSLFAERLQGFSPASVCIVGTHTLRQALNATDFLKRAEKVIPYPIEIISGNEEARLIFMGVEHTQPEKGRKLVIDIGGGSTELVIGENFEPILVESRRMGCVSFAQLYFPGGVINKENFQRARMAAAQKLETLTWQFRIQGWNVAMGASGTIKAAHEVLMEMGEKDGIITPERLEKLVKEVLRHRNFASLSLPGLSEERKTVFVPGLAILCGVFDALAIRELRLSDGALREGVLYEMEGRFRHQDVRSRTASSLANQYHIDSEQARRVLDTTMQMYEQWREQQPKLAHPQLEALLRWAAMLHEVGLNINHSGLHRHSAYILQNSDLPGFNQEQQLMMATLVRYHRKAIKLDDLPRFTLFKKKQFLPLIQLLRLGVLLNNQRQATTTPPTLTLITDDSHWTLRFPHDWFSQNALVLLDLEKEQEYWEGVAGWRLKIEEESTPEIAA [P0AFL6] | 5.76 ± 0.2 | 5.22 ± 0.12 | 3.78 ± 0.22 | 3.95 ± 0.21 | 3.68 ± 0.057 | 2.45 ± 0.086 | 4.69 ± 0.06 | 6.58 ± 0.48 | 3.83 ± 0.3 | 5.86 ± 0.01 | 3.96 ± 0.56 | 6.77 ± 0.37
MTRTNLITGFLGSGKTTSILHLLAHKDPNEKWAVLVNEFGEVGIDGALLADSGALLKEIPGGCMCCVNGLPMQVGLNTLLRQGKPDRLLIEPTGLGHPKQILDLLTAPVYEPWIDLRATLCILDPRLLLDEKSASNENFRDQLAAADIIVANKSDRTTPESEQALQRWWQQNGGDRQLIHSEHGKVDGHLLDLPRRNLAELPASAAHSHQHVVKKGLAALSLPEHQRWRRSLNSGQGYQACGWIFDADTVFDTIGILEWARLAPVERVKGVLRIPEGLVRINRQGDDLHIETQNVAPPDSRIELISSSEADWNALQSALLKLRLATTA | 4.59 ± 0.6 | 4.12 ± 0.58 | 3.4 ± 0.12 | 3.83 ± 0.31 | 3.47 ± 0.083 | 2.66 ± 0.31 | 5.66 ± 0.057 | 9.04 ± 0.88 | 3.47 ± 0.12 | 5.62 ± 0.064 | 5.197 ± 0.035 | 9.17 ± 0.28
MSQDPFQEREAEKYANPIPSREFILEHLTKREKPASRDELAVELHIEGEEQLEGLRRRLRAMERDGQLVFTRRQCYALPERLDLVKGTVIGHRDGYGFLRVEGRKDDLYLSSEQMKTCIHGDQVLAQPLGADRKGRREARIVRVLVPKTSQIVGRYFTEAGVGFVVPDDSRLSFDILIPPDQIMGARMGFVVVVELTQRPTRRTKAVGKIVEVLGDNMGTGMAVDIALRTHEIPYIWPQAVEQQVAGLKEEVPEEAKAGRVDLRDLPLVTIDGEDARDFDDAVYCEKKRGGGWRLWVAIADVSYYVRPSTPLDREARNRGTSVYFPSQVIPMLPEVLSNGLCSLNPQVDRLCMVCEMTVSSKGRLTGYKFYEAVMSSHARLTYTKVWHILQGDQDLREQYAPLVKHLEELHNLYKVLDKAREERGGISFESEEAKFIFNAERRIERIEQTQRNDAHKLIEECMILANISAARFVEKAKEPALFRIHDKPSTEAITSFRSVLAELGLELPGGNKPEPRDYAELLESVADRPDAEMLQTMLLRSMKQAIYDPENRGHFGLALQSYAHFTSPIRRYPDLTLHRAIKYLLAKEQGHQGNTTETGGYHYSMEEMLQLGQHCSMAERRADEATRDVADWLKCDFMLDQVGNVFKGVISSVTGFGFFVRLDDLFIDGLVHVSSLDNDYYRFDQVGQRLMGESSGQTYRLGDRVEVRVEAVNMDERKIDFSLISSERAPRNVGKTAREKAKKGDAGKKGGKRRQVGKKVNFEPDSAFRGEKKTKPKAAKKDARKAKKPSAKTQKIAAATKAKRAAKKKVAE | 6.54 ± 0.13 |  | 5.66 ± 0.29 | 5.87 ± 0.12 | 5.35 ± 0.14 | 3.06 ± 0.13 | 6.06 ± 0.13 | 12.1 ± 0.14 | 5.67 ± 0.095 | 9.82 ± 0.13 | 5.679 ± 0.029 | 11.2 ± 0.32
